From article PMC5381662 (Cell reports, 2016)
Like-named read-outs stand apart in the source and are kept apart here. Each block holds one binder with its values, some of them ahead of it.

Assays:
Test in all cases: pull-down
[1] = target: Strep II-tagged UAF1 K595E/H599A double mutant (UniProt Q8TAF3 1-677, K595E | H599A)
[2] = target: Strep II-tagged UAF1 K459E (UniProt Q8TAF3 1-677, K459E)
[3] = target: Strep II-tagged UAF1 K595E (UniProt Q8TAF3 1-677, K595E)
Strep II-tagged UAF1 [4] = target: T1, Strep II-tagged UAF1 (UniProt Q8TAF3 1-677)
T1 sequence (Q8TAF3 whole entry): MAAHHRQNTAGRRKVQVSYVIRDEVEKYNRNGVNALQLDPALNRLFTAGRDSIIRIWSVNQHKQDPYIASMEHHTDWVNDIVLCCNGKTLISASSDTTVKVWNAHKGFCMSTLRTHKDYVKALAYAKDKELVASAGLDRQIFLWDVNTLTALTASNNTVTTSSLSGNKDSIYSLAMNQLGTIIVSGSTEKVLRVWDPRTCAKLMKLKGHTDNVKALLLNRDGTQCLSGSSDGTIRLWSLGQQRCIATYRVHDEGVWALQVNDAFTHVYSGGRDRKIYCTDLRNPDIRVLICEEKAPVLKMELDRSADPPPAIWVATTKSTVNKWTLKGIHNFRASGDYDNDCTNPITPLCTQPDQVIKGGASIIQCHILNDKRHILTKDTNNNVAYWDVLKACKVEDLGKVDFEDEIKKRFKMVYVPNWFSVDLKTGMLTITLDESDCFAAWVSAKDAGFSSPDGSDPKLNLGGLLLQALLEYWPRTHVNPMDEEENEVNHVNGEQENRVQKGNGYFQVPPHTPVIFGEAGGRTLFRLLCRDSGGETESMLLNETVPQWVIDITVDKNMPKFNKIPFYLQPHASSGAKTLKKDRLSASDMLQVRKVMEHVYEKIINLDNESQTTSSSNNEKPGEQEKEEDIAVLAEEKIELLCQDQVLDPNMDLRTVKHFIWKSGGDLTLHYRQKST

[5] = target: Strep II-tagged UAF1 H599A (UniProt Q8TAF3 1-677, H599A)
Chain of Strep II-tagged UAF1 H599A (Q8TAF3 whole entry H599A): as the sequence (Q8TAF3 whole entry) above, with H599A counted along it

RAD51 = target: T2, RAD51 (UniProt Q06609 1-339)
T2 sequence (looked up): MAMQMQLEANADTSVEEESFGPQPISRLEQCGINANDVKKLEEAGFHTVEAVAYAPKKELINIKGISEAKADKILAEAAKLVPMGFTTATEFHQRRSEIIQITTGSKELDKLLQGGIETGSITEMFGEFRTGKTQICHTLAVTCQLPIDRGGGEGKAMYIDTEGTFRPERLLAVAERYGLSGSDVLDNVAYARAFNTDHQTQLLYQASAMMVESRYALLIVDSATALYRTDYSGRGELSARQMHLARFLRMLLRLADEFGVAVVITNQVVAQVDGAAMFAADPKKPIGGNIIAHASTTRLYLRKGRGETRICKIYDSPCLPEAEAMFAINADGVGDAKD

Strep II-tagged UAF1 [6] = target: T1, Strep II-tagged UAF1; remark: listed apart in the source
Strep II-tagged UAF1 [7] = target: T1, Strep II-tagged UAF1; remark: listed apart in the source

Chain of Strep II-tagged UAF1 K459E (Q8TAF3 whole entry K459E): as the sequence (Q8TAF3 whole entry) above, with K459E counted along it
Chain of Strep II-tagged UAF1 K595E/H599A double mutant (Q8TAF3 whole entry K595E/H599A): as the sequence (Q8TAF3 whole entry) above, with K595E, H599A counted along it
Chain of Strep II-tagged UAF1 K595E (Q8TAF3 whole entry K595E): as the sequence (Q8TAF3 whole entry) above, with K595E counted along it

B1: GST-tagged RAD51AP1 (natural protein, UniProt Q96B01-2 1-335, looked up)
chain: MVRPVRHKKPVNYSQFDHSDSDDDFVSATVPLNKKSRTAPKELKQDKPKPNLNNLRKEEIPVQEKTPKKRMALDDKLYQRDLEVALALSVKELPTVTTNVQNSQDKSIEKHGSSKIETMNKSPHISNCSVASDYLDLDKITVEDDVGGVQGKRKAASKAAAQQRKILLEGSDGDSANDTEPDFAPGEDSEDDSDFCESEDNDEDFSMRKSKVKEIKKKEVKVKSPVEKKEKKSKSKCNALVTSVDSAPAAVKSESQSLPKKVSLSSDTTRKPLEIRSPSAESKKPKWVPPAASGGSRSSSSPLVVVSVKSPNQSLRLGLSRLARVKPLHPNATST
binding result [1]: binds
binding result [2]: binds
binding result [3]: binds
binding result (Strep II-tagged UAF1 [4]): binds
binding result [5]: binds

B2: RAD51AP1 (no tag named) (natural protein, UniProt Q96B01-2 1-335, looked up)
chain: MVRPVRHKKPVNYSQFDHSDSDDDFVSATVPLNKKSRTAPKELKQDKPKPNLNNLRKEEIPVQEKTPKKRMALDDKLYQRDLEVALALSVKELPTVTTNVQNSQDKSIEKHGSSKIETMNKSPHISNCSVASDYLDLDKITVEDDVGGVQGKRKAASKAAAQQRKILLEGSDGDSANDTEPDFAPGEDSEDDSDFCESEDNDEDFSMRKSKVKEIKKKEVKVKSPVEKKEKKSKSKCNALVTSVDSAPAAVKSESQSLPKKVSLSSDTTRKPLEIRSPSAESKKPKWVPPAASGGSRSSSSPLVVVSVKSPNQSLRLGLSRLARVKPLHPNATST
binding result (RAD51): binds
binding result (Strep II-tagged UAF1 [6]): binds

Second part, the binder after the results:

binding result (Strep II-tagged UAF1 [7]): binds
B3: RAD51AP1 1-145 fragment (domain or fragment, UniProt Q96B01-2 1-145, looked up)
chain: MVRPVRHKKPVNYSQFDHSDSDDDFVSATVPLNKKSRTAPKELKQDKPKPNLNNLRKEEIPVQEKTPKKRMALDDKLYQRDLEVALALSVKELPTVTTNVQNSQDKSIEKHGSSKIETMNKSPHISNCSVASDYLDLDKITVEDD

binding result (Strep II-tagged UAF1 [7]): binds
B4: RAD51AP1 ΔN25 mutant (domain or fragment, UniProt Q96B01-2 26-335, looked up)
chain: VSATVPLNKKSRTAPKELKQDKPKPNLNNLRKEEIPVQEKTPKKRMALDDKLYQRDLEVALALSVKELPTVTTNVQNSQDKSIEKHGSSKIETMNKSPHISNCSVASDYLDLDKITVEDDVGGVQGKRKAASKAAAQQRKILLEGSDGDSANDTEPDFAPGEDSEDDSDFCESEDNDEDFSMRKSKVKEIKKKEVKVKSPVEKKEKKSKSKCNALVTSVDSAPAAVKSESQSLPKKVSLSSDTTRKPLEIRSPSAESKKPKWVPPAASGGSRSSSSPLVVVSVKSPNQSLRLGLSRLARVKPLHPNATST

binding result (Strep II-tagged UAF1 [7]): binds
B5: RAD51AP1 H329A mutant (natural protein, UniProt Q96B01-2 1-335, looked up)
chain: MVRPVRHKKPVNYSQFDHSDSDDDFVSATVPLNKKSRTAPKELKQDKPKPNLNNLRKEEIPVQEKTPKKRMALDDKLYQRDLEVALALSVKELPTVTTNVQNSQDKSIEKHGSSKIETMNKSPHISNCSVASDYLDLDKITVEDDVGGVQGKRKAASKAAAQQRKILLEGSDGDSANDTEPDFAPGEDSEDDSDFCESEDNDEDFSMRKSKVKEIKKKEVKVKSPVEKKEKKSKSKCNALVTSVDSAPAAVKSESQSLPKKVSLSSDTTRKPLEIRSPSAESKKPKWVPPAASGGSRSSSSPLVVVSVKSPNQSLRLGLSRLARVKPLAPNATST

binding result (Strep II-tagged UAF1 [7]): binds
B6: RAD51AP1 fragment, amino acid residues 95-187 (domain or fragment, UniProt Q96B01-2 95-187, looked up)
chain: TVTTNVQNSQDKSIEKHGSSKIETMNKSPHISNCSVASDYLDLDKITVEDDVGGVQGKRKAASKAAAQQRKILLEGSDGDSANDTEPDFAPGE
